Data as given in publication doi:10.1101/2022.04.29.490041.

Biological target: NSF_(E326Q):GFP (dominant-negative variant of NSF, GFP-tagged) (Arabidopsis thaliana) (UniProt Q9M0Y8)
Assay: co-IP

Sequence of UniProt Q9M0Y8 (Q9M0Y8 whole entry E326Q): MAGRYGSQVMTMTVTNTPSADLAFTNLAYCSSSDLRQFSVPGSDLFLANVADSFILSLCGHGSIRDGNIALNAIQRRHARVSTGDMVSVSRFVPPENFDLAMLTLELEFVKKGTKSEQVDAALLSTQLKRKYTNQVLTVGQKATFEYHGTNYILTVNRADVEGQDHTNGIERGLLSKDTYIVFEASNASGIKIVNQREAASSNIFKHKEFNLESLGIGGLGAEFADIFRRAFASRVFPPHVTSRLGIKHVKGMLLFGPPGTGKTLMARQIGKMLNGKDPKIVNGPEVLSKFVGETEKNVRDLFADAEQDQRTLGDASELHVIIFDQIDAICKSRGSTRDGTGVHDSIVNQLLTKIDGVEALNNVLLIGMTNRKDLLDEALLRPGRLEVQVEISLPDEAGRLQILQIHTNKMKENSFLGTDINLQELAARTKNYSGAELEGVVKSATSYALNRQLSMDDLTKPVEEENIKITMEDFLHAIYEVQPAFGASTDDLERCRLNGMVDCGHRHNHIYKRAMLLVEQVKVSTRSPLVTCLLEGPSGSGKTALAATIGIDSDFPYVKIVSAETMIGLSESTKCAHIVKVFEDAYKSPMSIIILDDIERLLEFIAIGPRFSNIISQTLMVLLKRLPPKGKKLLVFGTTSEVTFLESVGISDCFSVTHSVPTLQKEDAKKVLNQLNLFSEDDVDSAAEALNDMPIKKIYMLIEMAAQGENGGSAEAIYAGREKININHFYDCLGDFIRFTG

fold increase of co-precipitation relative to wild-type NSF: 38 fold
Substance: KNOLLE (cytokinesis-specific Qa-SNARE) (natural protein)
